± gives the standard deviation.
Assay: protein stability index of a GFP-peptide fusion (GPS, HEK-293T) (PSI 1-6); higher = more stable
Details: c terminus: a fixed tail appended
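Note: 24-mer peptide tiles fused after GFP, lentivirally expressed, FACS-sorted into six equal bins by GFP/DsRed ratio, decoded by Illumina sequencing, PSI is the read-weighted mean bin number.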

| Sequence | protein stability index (treatment: DMSO) | protein stability index (treatment: MLN4924 1 uM, 8 h) |
| --- | --- | --- |
| NVEMDATPGIDLTRVLAEMREQYE [KRT13] | 4.47 ± 0.17 | 4.75 ± 0.32 |
| NVHTGEFRNCGACVTLMQGHEGSV [WDR88] | 2.35 ± 0.5 | 2.17 ± 0.2 |
| NVLVDPSARIGQNCSIGPNVSLGP [GMPPB] | 3.61 ± 0.088 | 3.43 ± 0.25 |
| NVQRLAEPSQMLKHAVVNLINYQD [CTNNB1] | 2.66 ± 0.18 | 2.83 ± 0.12 |
| NYYEVGSNRGAYVKLGPALTPHIV [PPEF2] | 2.19 ± 0.2 | 2.55 ± 0.32 |
| PAMGLQKKLRLNGGRNPYEGRVEV [LOXL2] |  | 4.08 ± 0.88 |
| PAQRSHTYTHGLGLHRRPGAGHCS | 3.52 ± 0.12 | 3.46 ± 0.3 |
| PCSFVCWYRPMYKAFRSDSSFNFF [SCAMP3] | 2.86 ± 0.77 | 2.6 ± 0.5 |
| PCSVIRPILKRLERPQDRDTPVQN [CDC25B] | 4.31 ± 0.15 | 4.51 ± 0.066 |
| PCVIESLRTLDKKTFYKTADISQM [TAF7L] | 2.33 ± 0.34 | 2.41 ± 0.23 |
| PDAIRSRSNTLRERSQVRGSAPPR [PCDHGC5] | 5 ± 0.33 | 4.84 ± 0.23 |
| PDDYRCSYRIHNGQKLVVPGLLGS [FBXO3] | 2.68 ± 0.46 | 2.66 ± 0.34 |
| PDLRQDFNMMEQKKRVSMILQSPA [ADD1] | 3.7 ± 0.32 | 3.78 ± 0.23 |
| PDQLPQNNTLVALPIVAIENILSF [FBXO28] | 2.34 ± 0.24 | 2.38 ± 0.27 |
| PDSVPSLQNMGLLLDKLAKENQDI [PBXIP1] | 4.48 ± 0.18 | 4.42 ± 0.15 |
| PDYGVPSSAASLIDFLRVVRNQQS [PTPN9] | 2.84 ± 0.24 | 3.14 ± 0.25 |
| PEFVAPEIVNYEPLGLEADMWSIG [DAPK3] | 3.46 ± 0.24 | 3.93 ± 0.7 |
| PELTAALRDIRAQYESIAAKNLQE [PRPH] | 3.52 ± 0.65 | 3.8 ± 0.48 |
| PEVILELGWAQPCDVWSIGCILFE [CLK3] | 2.63 ± 0.5 | 3.55 ± 1 |
| PEVTSALLESLNQQRLQGQLCDVS [ZBTB22] | 3.57 ± 0.23 | 3.65 ± 0.35 |
| PFKQVAEMLSASRYPTISMVKPLL [ZBED1] | 1.97 ± 0.4 | 2.19 ± 0.38 |
| PFTVYQVRWLRPVHRQLGEANEEF [AUP1] | 2.43 ± 0.34 | 2.33 ± 0.32 |
| PGGVYAGPEPPPVYTNLSSYSPAS [JUNB] | 3.94 ± 0.27 | 4.18 ± 0.41 |

| Sequence | protein stability index (treatment: DMSO) | protein stability index (treatment: MLN4924 1 uM, 8 h) |
| --- | --- | --- |
| PGKALGPAATMAVELHYEEGSPRN [C2CD2L] | 4.81 ± 0.29 | 4.82 ± 0.21 |
| PGNKGRGQRGNTESKTDGDDTETV [TCF25] | 5.57 ± 0.3 | 5.54 ± 0.3 |
| PGTGKTSLCKALAQKLTIRLSSRY [TRIP13] | 2.92 ± 0.64 | 2.63 ± 0.65 |
| PHVALAVRYNRVGILRRILRTLRD [ANKRD9] | 2.73 ± 0.073 | 2.84 ± 0.3 |
| PIAPEVEDPEENPYGPPPDAVQTS [RBBP5] | 5.56 ± 0.17 | 5.54 ± 0.19 |
| PIPWFLPESRSLPSSPLRLGSYKA [PPEF2] | 2.99 ± 0.16 | 3.11 ± 0.48 |
| PISPSTEVGGSGIGTPPSVLKRQR [MYBL2] | 5.36 ± 0.24 | 4.97 ± 0.36 |
| PIVPKIAGDGDTSNFETYPENDWD [PRKX] | 5.51 ± 0.17 | 5.37 ± 0.32 |
| PKGSLSMGPAPRARPWTRDSASLP [RASAL3] | 3.81 ± 0.13 | 4.04 ± 0.4 |
| PKPLTRKPILLQRMEGSQEVVNMA [WDFY2] | 3.66 ± 0.049 | 3.65 ± 0.41 |
| PLDILAQPLEASNPALEGLTQPLQ [DNAAF3] | 4.9 ± 0.28 | 4.78 ± 0.16 |
| PLIKATVGLIRNLALCPANHAPLR [CTNNB1] | 2.39 ± 0.47 | 2.55 ± 0.43 |
| PMLWNPSGTPKRYSLELGKAIKQK [C22orf31] | 3.59 ± 0.23 | 3.56 ± 0.14 |
| PPLPGDMSTGPIAESWCYTQVKVV [SPOPL] | 2.27 ± 0.15 | 2.38 ± 0.33 |
| PPLPPPDDPATLGPHLGLRGVPQS [DYRK1B] | 4.9 ± 0.23 | 4.91 ± 0.14 |
| PPPPPSPSSLGPLLPLQREPLYNW [BTBD1] | 3.78 ± 0.15 | 3.73 ± 0.25 |
| PPQSPQGASSLPTTMNYPLWSQSY [MAGEA3] | 3.45 ± 0.21 | 3.47 ± 0.22 |
| PPRQALGSLCSPWAAPRVGPLPPA [YPEL3] | 3.16 ± 0.51 | 3.2 ± 0.44 |
| PQAPDPEEEENRDSQQPGKRRKDS [FANCE] | 5.74 ± 0.21 | 5.62 ± 0.3 |
| PQQYMAFLPHHIMVKIFRLLPTKS [FBXO34] | 2.23 ± 0.38 | 2.07 ± 0.39 |
| PRGRLDLATQSLTVETCRALGKLL [LRRC45] | 2.38 ± 0.28 | 2.31 ± 0.31 |
| PRNSCITCPQCHRSLILDDRGLRG [TRIM9] | 2.58 ± 0.27 | 3 ± 0.45 |
| PRPDMAPELTPEEEQATKQFLEEI [PTPN9] | 5.12 ± 0.48 | 5.08 ± 0.62 |

| Sequence | protein stability index (treatment: DMSO) | protein stability index (treatment: MLN4924 1 uM, 8 h) |
| --- | --- | --- |
| PRVPEEAAQDRPMSPGDCPPETTE [YJU2B] | 5.46 ± 0.26 | 5.4 ± 0.37 |
| PRYREDPCKQCKKKYVKGDVSLCR [FBXO34] | 2.99 ± 0.45 | 3.35 ± 0.24 |
| PSEDIWKKFELVPSPPTSPPWGLG [MYCL] | 3.04 ± 0.36 | 2.9 ± 0.37 |
| PSGTPTNLRRHVPDLESGSESGAD [DLC1] | 5.47 ± 0.33 | 5.46 ± 0.1 |
| PSLDSRQRLDYEREIQPTAILSLD [SPRY1] | 4.39 ± 0.16 | 4.53 ± 0.22 |
| PTAATTQNPVLSKLLMADQDSPLD [LCOR] | 4.9 ± 0.17 | 4.87 ± 0.19 |
| PVKKQLQGASWELQSLRPHDEDIK [ZNF396] | 4.62 ± 0.21 | 4.72 ± 0.38 |
| PVPGKTLHLPIMGVVMKVRIPTCH [DENND6A] | 2.43 ± 0.72 | 2.45 ± 0.38 |
| PVQELPPSLRAPPPGGWPLQPRVQ [ZMAT5] | 4.02 ± 0.39 | 4.18 ± 0.25 |
| PVTNNLLEKCKTLVSQSNDLSSLR [SPACA9] | 3.04 ± 0.2 | 3.14 ± 0.24 |
| PVTPLGLQNEVPPQPDPVFLEALS [SERTAD3] | 4.55 ± 0.33 | 4.46 ± 0.27 |
| PVVWWLNLLSIALYLLSGSIIAVA [POMT2] | 3.27 ± 0.14 | 3.43 ± 0.18 |
| PWVYILLRKAVLKNLYKLASQCCG [PTGFR] | 2.09 ± 0.26 | 2.22 ± 0.45 |
| PYAMKPIDYYTETKILQERAVLGA [NSDHL] | 2.85 ± 0.14 | 3.06 ± 0.18 |
| PYVSDGNFSNYYVAHPPVTYSQPY [TENT5C] | 2.55 ± 0.39 | 2.62 ± 0.38 |
| QDDLENPMLETASKLLLSGTADGA [ANKRD17] | 5.14 ± 0.33 | 5.2 ± 0.36 |
| QDEEMLELPAPAEVAAKNQSLEGD [MLH1] | 5.37 ± 0.59 | 5.66 ± 0.17 |
| QDLKYISPEIMASVLNGKFANLIK [CDC25A] | 2.21 ± 0.22 | 2.24 ± 0.17 |
| QELELVLMISENNFLFRNAASTLT [ANKRD40] | 2.91 ± 0.82 | 3.28 ± 0.74 |
| QEQRLGIRISMSHEEEPLGTAGPL [GMPPB] | 4.82 ± 0.21 | 4.79 ± 0.34 |
| QFLGFSWIFVNLTVRFCILGKESF [HACD3] | 3.49 ± 0.52 | 3.25 ± 0.16 |
| QFVSSVPRCDLVDLGEGKICFCCE [FAM189A2] | 2.67 ± 0.37 | 2.98 ± 0.6 |
| QHLPAQEQWDRLLVLYPTSLAIFS [PLEKHN1] | 2.55 ± 0.53 | 2.6 ± 0.59 |

| Sequence | protein stability index (treatment: DMSO) | protein stability index (treatment: MLN4924 1 uM, 8 h) |
| --- | --- | --- |
| QHPDMSVTKVVVHKETEITPEDGE [EPB41L3] | 5.33 ± 0.23 | 5.39 ± 0.21 |
| QHQNKSPPKVKAEDGMQCLQLKET [DLC1] | 5.17 ± 0.47 | 5.2 ± 0.11 |
| QIITVTVQTGLDQYQQVPVEIVKS [IQUB] | 2.32 ± 0.17 | 2.07 ± 0.38 |
| QKENVFKCDSLKEECIPEHMVRES [FAN1] | 4.56 ± 0.38 | 4.56 ± 0.19 |
| QKNFNNLYGTKGNYTSRVWEYSSS [TRIM29] | 2.31 ± 0.4 | 2.51 ± 0.12 |
| QKRYHCKECGKVFSQSAGLIQHQR [ZSCAN9] | 3.3 ± 0.35 | 3.63 ± 0.63 |
| QLCDVSIRVQGREFRAHRAVLAAS [ZBTB22] | 2.58 ± 0.35 | 2.77 ± 0.3 |
| QLILFGLSNQLAVTFREENTIAFR [MCOLN1] | 2.65 ± 0.49 | 2.33 ± 0.64 |
| QLVLVAAGFDALQGDPKGEMAATP [HDAC6] | 2.75 ± 0.057 | 2.8 ± 0.43 |
| QNKAQRQKDLIMKVENLTLKNHFQ [TAF7L] | 3.08 ± 0.28 | 3.1 ± 0.13 |
| QPPPQEEPGTPSSSPDDKLLTSPR [KLHL14] | 5.52 ± 0.16 | 5.48 ± 0.15 |
| QQLAAEPVPTGFFNMWGFGRVSKQ [WDR41] | 3.56 ± 0.35 | 3.49 ± 0.25 |
| QQLLHHARNGNAEEVRQLLETMAR [OSBPL1A] | 3.15 ± 0.38 | 3.78 ± 0.3 |
| QQVKCIITEEKVCMVCKKKIGNSA [VPS39] | 3.24 ± 0.4 | 3.6 ± 0.66 |
| QRPVSRQVTCLRTQVLEDSEDSFC [TRAF3IP2] | 4.68 ± 0.19 | 4.53 ± 0.14 |
| QRVGFGDDFDEDELMAELEELEQE [CHMP4C] | 5.33 ± 0.4 | 5.35 ± 0.23 |
| QSLDEPGGATFLLTAKQLIKSIVE [TRIM63] | 2.6 ± 0.33 | 2.32 ± 0.37 |
| QSLPCTERKPAATARLSRRGTSLS [KISS1] | 4.71 ± 0.2 | 4.66 ± 0.32 |
| QVHRQGERRRELVRSQTLPRTSEA [SMTNL2] | 4.957 ± 0.024 | 4.98 ± 0.16 |
| QVYLSHTAWTEACQVEVRLLLAYN [INTS4] | 3.15 ± 0.51 | 3.09 ± 0.19 |
| RADPLVCATGLLGSAPFLFLSLAC [SPNS1] | 3.37 ± 0.32 | 3.04 ± 0.22 |

From the supplement of paper PMC10567573
